Measured values reported in patent publication US12692310B2, “ASIC1 channel antagonist antibody” (ShanghaiTech University, priority 2019, dated 2026).

T1: hASIC1a-eYFP (human, UniProt P78348 1-528)
T1 sequence (looked up): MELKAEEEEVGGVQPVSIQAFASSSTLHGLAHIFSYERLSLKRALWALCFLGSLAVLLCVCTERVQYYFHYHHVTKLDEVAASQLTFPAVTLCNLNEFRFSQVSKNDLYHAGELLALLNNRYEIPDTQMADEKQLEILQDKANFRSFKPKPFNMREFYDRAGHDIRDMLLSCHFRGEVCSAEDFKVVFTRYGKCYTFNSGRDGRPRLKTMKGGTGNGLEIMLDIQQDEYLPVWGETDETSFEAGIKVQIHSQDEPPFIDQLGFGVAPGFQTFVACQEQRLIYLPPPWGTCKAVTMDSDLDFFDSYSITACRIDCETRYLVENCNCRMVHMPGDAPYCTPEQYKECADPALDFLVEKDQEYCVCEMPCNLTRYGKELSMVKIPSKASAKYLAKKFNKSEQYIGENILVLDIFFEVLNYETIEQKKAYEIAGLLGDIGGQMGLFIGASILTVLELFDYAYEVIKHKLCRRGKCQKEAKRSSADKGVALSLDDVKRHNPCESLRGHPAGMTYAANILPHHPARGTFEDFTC

T2: hASIC1a-mCherry (human, UniProt P78348 1-528)
T2 sequence (looked up): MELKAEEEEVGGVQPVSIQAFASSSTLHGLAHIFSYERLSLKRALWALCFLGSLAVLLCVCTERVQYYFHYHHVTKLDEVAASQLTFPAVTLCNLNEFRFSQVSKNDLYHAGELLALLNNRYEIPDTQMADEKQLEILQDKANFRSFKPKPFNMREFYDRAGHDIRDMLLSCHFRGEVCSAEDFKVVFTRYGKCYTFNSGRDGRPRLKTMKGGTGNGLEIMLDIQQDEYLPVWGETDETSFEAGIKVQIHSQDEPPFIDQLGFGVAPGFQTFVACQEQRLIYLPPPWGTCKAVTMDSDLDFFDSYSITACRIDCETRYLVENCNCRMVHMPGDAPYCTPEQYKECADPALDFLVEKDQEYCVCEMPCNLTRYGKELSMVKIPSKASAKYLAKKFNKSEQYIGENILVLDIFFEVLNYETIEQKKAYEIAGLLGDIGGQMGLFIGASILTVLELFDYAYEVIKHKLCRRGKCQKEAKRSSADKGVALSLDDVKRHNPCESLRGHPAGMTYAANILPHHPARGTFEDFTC

T3: hASIC3a-eYFP (human, UniProt Q9UHC3 1-531)
T3 construct: whole, on cells; Transiently expressed on CHO-K1 cells; not shown: eYFP fusion
T3 sequence (looked up): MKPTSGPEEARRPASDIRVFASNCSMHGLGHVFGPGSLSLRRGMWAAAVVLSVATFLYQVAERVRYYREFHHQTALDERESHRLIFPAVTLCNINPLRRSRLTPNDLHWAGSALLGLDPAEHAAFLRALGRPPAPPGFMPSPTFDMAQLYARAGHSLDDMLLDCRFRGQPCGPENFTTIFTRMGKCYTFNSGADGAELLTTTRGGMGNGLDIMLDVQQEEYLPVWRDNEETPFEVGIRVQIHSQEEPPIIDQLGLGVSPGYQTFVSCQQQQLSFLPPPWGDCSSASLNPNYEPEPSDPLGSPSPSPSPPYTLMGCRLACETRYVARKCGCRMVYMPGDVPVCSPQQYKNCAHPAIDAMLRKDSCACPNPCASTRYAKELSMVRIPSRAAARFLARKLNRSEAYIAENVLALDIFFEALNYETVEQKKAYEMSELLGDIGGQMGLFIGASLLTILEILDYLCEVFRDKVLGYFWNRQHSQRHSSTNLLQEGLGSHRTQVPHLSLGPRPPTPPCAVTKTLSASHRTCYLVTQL

T4: hASIC2a-eYFP (human, UniProt Q16515 1-512)
T4 construct: whole, on cells; Transiently expressed on CHO-K1 cells; not shown: eYFP fusion
T4 sequence (looked up): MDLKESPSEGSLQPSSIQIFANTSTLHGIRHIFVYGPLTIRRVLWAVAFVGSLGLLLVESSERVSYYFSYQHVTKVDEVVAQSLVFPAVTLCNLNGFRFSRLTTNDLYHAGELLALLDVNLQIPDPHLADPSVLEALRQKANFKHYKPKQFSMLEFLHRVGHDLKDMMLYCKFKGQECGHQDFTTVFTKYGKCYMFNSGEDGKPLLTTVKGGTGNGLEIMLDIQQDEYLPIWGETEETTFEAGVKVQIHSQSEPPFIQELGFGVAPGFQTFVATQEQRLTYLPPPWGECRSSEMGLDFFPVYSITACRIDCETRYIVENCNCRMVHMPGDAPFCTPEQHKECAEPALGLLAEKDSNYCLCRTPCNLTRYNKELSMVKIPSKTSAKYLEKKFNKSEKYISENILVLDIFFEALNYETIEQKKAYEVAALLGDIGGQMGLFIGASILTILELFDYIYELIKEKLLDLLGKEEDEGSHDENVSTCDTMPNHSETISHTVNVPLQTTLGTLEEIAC

T5: hASIC1a Y318A mutation (hASIC1a-eYFP) (human, UniProt P78348 1-528)
T5 construct: whole, on cells; Transiently expressed on CHO-K1 cells; not shown: eYFP fusion
T5 sequence (looked up): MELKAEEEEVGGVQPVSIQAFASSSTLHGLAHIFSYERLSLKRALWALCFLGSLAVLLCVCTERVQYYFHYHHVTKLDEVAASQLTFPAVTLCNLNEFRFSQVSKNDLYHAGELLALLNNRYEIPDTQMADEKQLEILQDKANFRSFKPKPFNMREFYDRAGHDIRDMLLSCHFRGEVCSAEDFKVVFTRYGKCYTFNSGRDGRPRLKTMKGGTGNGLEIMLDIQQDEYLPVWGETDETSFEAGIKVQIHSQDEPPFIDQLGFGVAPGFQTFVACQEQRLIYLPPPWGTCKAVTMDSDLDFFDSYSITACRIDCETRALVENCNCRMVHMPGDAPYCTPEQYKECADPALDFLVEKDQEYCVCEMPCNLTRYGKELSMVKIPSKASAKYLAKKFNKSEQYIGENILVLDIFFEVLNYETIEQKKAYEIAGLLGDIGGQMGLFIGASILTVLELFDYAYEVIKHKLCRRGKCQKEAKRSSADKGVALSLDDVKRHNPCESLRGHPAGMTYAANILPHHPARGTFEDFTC


Assays:
[1] = molecular target: T6, hASIC1a (hASIC1a-mCherry, 4C12 cells) (Homo sapiens, UniProt P78348); test: FLIPR assay of acid-induced ASIC1a-mediated calcium influx in 4C12 cells; format: cell-based; settings: at 30 µM
T6 construct: expressed in transfected cells
Method: Calcium Influx. The FLIPR Calcium 5 Assay kit was used to determine the acid-induced calcium influx in the hASIC1a-mCherry-expressing stable CHO-K1 cells (4C12). Cells were seeded in a clear bottom 96-well plate at a density of 10,000 per well 24 h before assay. Assay buffer and dye loading buffer (1.26 mM CaCl2, 0.5 mM MgCl2, 0.4 mM MgSO4, 5.33 mM KCl, 0.44 mM KH2PO4, 4.17 mM NaHCO3, 138 mM NaCl, 0.338 mM Na2HPO4, 20 mM HEPES, pH 7.4) were prepared according to the manufacturer's instruction. Probenecid was added to the dye loading buffer to a final concentration of 2.5 mM immediately before use. Fifty microliters of the assay buffer containing ASC06-IgG1 was incubated with the 4C12 cells for 30 min at 37° C., and an equal volume of the dye loading buffer was added. […] Cells were incubated with the dye loading buffer for 1 h before reading on an FDSS/μCELL plate reader (Hamamatsu). […] The progression curve of the calcium signal produced in each well was recorded continuously for 10 s before the addition of the activation buffer (preread) and 170 s after the addition on an FDSS/μCELL (excitation wavelength: 480 nm; emission wavelength: 540 nm) FLIPR reader. […]
The calcium influx of the ASIC1a was measured on a FLIPR instrument using the stable cell line 4C12 expressing hASIC1a-mCherry fusion. […]

[2] = molecular target: T1, hASIC1a-eYFP; test: cell-based or functional assay
[3] = molecular target: T2, hASIC1a-mCherry; test: cell-based or functional assay
[4] = molecular target: T1, hASIC1a-eYFP; test: flow cytometry on 6H7 cells (stable hASIC1a-eYFP), Alexa555 secondary antibody
Method: In the flow cytometry-binding experiments, ASIC1a-eYFP-expressing stable cells (6H7) were collected and resuspended in ice cold FACS buffer (PBS, 0.05% BSA, 2 mM EDTA). […] After incubating at 4° C. for 15 min, the cells were washed twice and resuspended in the FACS buffer. Cells were sorted and analyzed on a flow cytometer (CytoFLEX S; Beckman Culter) to determine relative binding level by the antibodies to the stable cell lines overexpressing hASIC1a. Mean fluorescent intensities of Alexa555 in eYFP-positive cells were recorded and analyzed to calculate the apparent binding affinity of antibody.

[5] = molecular target: T3, hASIC3a-eYFP; test: flow cytometry, CHO-K1 cells transiently transfected with hASIC3a-eYFP, Alexa555-conjugated ASC06-IgG1
Excerpt: 10,000 cells were sorted.
(§1) The CHO-K1 cells were transiently transfected with these plasmids.

[6] = molecular target: hASIC1b-eYFP (human) (UniProt P78348); test: flow cytometry, CHO-K1 cells transiently transfected with hASIC1b-eYFP, Alexa555-conjugated ASC06-IgG1; eYFP-positive cells without antibody signal: Q1-LR(49.22%)
[7] = molecular target: hASIC2a/2b-eYFP (human) (UniProt Q16515); test: flow cytometry, CHO-K1 cells transiently transfected with hASIC2a/2b-eYFP, Alexa555-conjugated ASC06-IgG1; eYFP-positive cells without antibody signal: Q1-LR(27.09%)
[8] = molecular target: truncated hASIC1a (amino acids 13-464) (human) (UniProt P78348); test: SPR (Biacore T200), single cycle kinetics, Flag-tagged ΔhASIC1a captured on anti-Flag chip, antibody as analyte
[9] = molecular target: T4, hASIC2a-eYFP; test: flow cytometry, CHO-K1 cells transiently transfected with hASIC2a-eYFP, Alexa555-conjugated ASC06-IgG1
Excerpt: 10,000 cells were sorted.
as §1

[10] = molecular target: T5, hASIC1a Y318A mutation (hASIC1a-eYFP); test: flow cytometry, CHO-K1 cells transiently transfected with hASIC1a Y318A-eYFP, ASC06-IgG1 and labelled second antibody
Excerpt: Plasmid encoding single amino acid mutation of hASIC1a-eYFP was constructed and transient transfected into CHO-K1 cells.

inhibition of calcium influx [1] [%]	apparent IC50 of inhibition of acid (pH 6.0)-induced currents, whole-cell patch clamp on the hASIC1a stable cell line [2] [nM]	IC50 of inhibition of acid-induced calcium influx, FLIPR assay on 4C12 cells [3] [nM]	EC50 [4] [nM]	binding result [5]	percent of cells in quadrant Q1-UR (Alexa555 and eYFP double-positive) [6] [%]	percent of cells in quadrant Q1-UR (Alexa555 and eYFP double-positive) [7] [%]	Kd [8] [nM]	binding result [9]	binding result [10]	Molecule
21	–	–	–	–	–	–	–	–	–	N=C(N)NC(=O)c1nc(Cl)c(N)nc1N [amiloride]
–	85	2.9	2.06	no binding	0.15	0.11	7.9	no binding	no binding	ASC06-IgG1 (antibody, V domains shown, also called full length (ASC06-IgG1); ASC06-lgG1) VH: QVQLQQSGGGLVQPGGSLRLSCAASGFTFSSYAMSWVRQAPGKGLEWVSAISGSGGSTYYADSVKGRFTISRDNSKNTLYLQMNSLRAEDTAVYYCAKDSFYGYSKGDWGQGTLVTVSS VL: QSALTQPASVSGSPGQSITISCTGTSSDVGAYNYVSWYQQQPGKAPKLMIYGVSNRPSGVSNRFSGSKSGNAASLTISGLQAEDEADYYCSSYTSSSTYVFGTGTKLTVLG
